# According to patent publication US7172865B2, “Rapid and sensitive assay for the detection and quantification of coregulators of nucleic acid binding factors” (Saint Louis University, priority 2001, dated 2007):
# “Also recorded” adds a separate entry of the source.
# Legend:
# [1] = tested on: consensus CAP site split between CAP1/CAP4 and CAP2/CAP3 duplexes; assay: CAP detection by fluorescence quenching, fluorescein/dabcyl-labeled half-site duplexes; type: binding, E. coli
# Description: A 38 bp DNA sequence corresponding to a consensus CAP site (Ebright, R. H., Ebright, Y. W. & Gunasakera, A. Nucleic Acids Res. 17, 10295–10305, 1989) was used as a basis for designing oligonucleotides necessary for preparing the CAP assay reagents according to the scheme illustrated in FIG. 1A. FIG. 3 illustrates the details of the design used. The following four oligonucleotides were synthesized using standard phosphoramidate automated oligonucleotide synthesis (F=dT-fluorescein; D=dT-dabcyl):
# The fluorescence donor (fluorescein) and the fluorescence acceptor (dabcyl) were introduced into DNA fragments using commercially available dT-fluorescein and dT-dabcyl (Glen Research, Sterling, Va.) , wherein dT stands for deoxythymidine. […] The fractions containing the oligonucleotides were dried in a vacuum centrifuge concentrator and subsequently dissolved in 50 μl of water. […] The CAP1 oligonucleotide (SEQ ID NO:1) was hybridized with CAP4 oligonucleotide (SEQ ID NO:4) to generate the CAP1/CAP4 duplex and CAP2 oligonucleotide (SEQ ID NO:2) was hybridized with CAP3 oligonucleotide (SEQ ID NO:3) to generate the CAP2/CAP3 duplex. […] The excitation wavelength was at 490 nm and the emission was recorded from 500 to 650 nm.
# FIG. 4B illustrates changes in fluorescence observed upon the addition of CAP protein. The spectrum of 50 nM of the CAP1/CAP4 duplex and 50 nM of the CAP2/CAP3 duplex was recorded (curve 1). CAP protein was added at 75 nM and after 15 minutes of incubation the spectrum was recorded (curve 2). A major quenching of fluorescence of approximately 50% of the control signal intensity was observed, which is consistent with the prediction that in the presence of CAP protein the association between the CAP1/CAP4 and CAP2/CAP3 duplexes is facilitated and that the fluorescein (fluorescent donor) present in the CAP2/CAP3 duplex is brought into close proximity to the dabcyl (fluorescent acceptor) present in the CAP1/CAP4 duplex, which results in the quenching of fluorescence emission due to FRET between the fluorescein and dabcyl.
# FIG. 6 illustrates the change in fluorescence observed upon addition of increasing amounts of CAP protein in the assay. The experiments were performed under the same conditions as those for the experiment described above and in FIG. 4. Fluorescence quenching increased proportionally with the increase of CAP concentration until a saturation of the signal occurred at ˜150 nM protein.
# The kinetics of CAP induced fluorescence quenching was also studied to determine the time required for completion of the assay (FIG. 7). […] At the time indicated by the arrow in FIG. 7, 100 nM CAP protein was added and monitoring of the fluorescence signal was resumed.
# CAP protein = CAP protein (Escherichia coli, UniProt P0ACJ8); conditions: in the absence of cAMP
# [2] = tested on: CAP5/CAP3 and CAP1/CAP4 duplexes; assay: two-color simultaneous detection, coumarin-labeled CAP constructs; type: binding; conditions: excitation 433 nm, one protein only
# Description: The compatibility of the assays described in the instant invention with a variety of fluorescence probes emitting at different wavelengths allows for the designing of variations in which two or more proteins may be detected simultaneously. Nucleic acid constructs specific for each of the proteins to be detected may be labeled with probes that emit light at different wavelengths. In this example, the reaction mixture contained nucleic acid constructs labeled with 7-diethylaminocoumarin-3-carboxylic acid for detecting CAP protein (described in EXAMPLE 2) and nucleic acid constructs labeled with fluorescein for detecting TrpR protein (described in EXAMPLE 6). Specifically, 100 nM CAP5/CAP3, 120 nM CAP1/CAP4, 100 nM TRP2/TRP3, and 120 nM TRP1/TRP4 duplexes were present in the reaction mixture.
# The fluorescence spectra with the excitation at 433 nm (excitation of 7-diethylaminocoumarin-3-carbo acid, FIG. 17A) and with the excitation at 490 nm (excitation of fluorescein, FIG. 17B) were recorded in the absence of the proteins (curves 1), in the presence of CAP only (curves 2), in the presence of TrpR only (curves 3), and in the presence of both CAP and TrpR (curves 4). In the presence of only CAP there was no change in the fluorescein signal (FIG. 17B, curve 2) whereas about 60% quenching of the 7-diethylaminocoumarin-3-carbox acid signal was observed (FIG. 17A, curve 2). […]
# [3] = tested on: CAP nucleic acid binding element (CAP10/CAP11 and CAP12/CAP13); assay: multiwell plate assay, immobilized CAP10/CAP11 and biotin-labeled CAP12/CAP13, streptavidin-peroxidase detection; conditions: for Absorbance (450 nm), + CAP: 200 μM cAMP
# Experimental: To illustrate the extensive flexibility of the invention in terms of detection mode, an experiment following the general design depicted in FIG. 1E was performed. The following oligonucleotides, which when fully assembled contain a complete CAP nucleic acid binding element, were synthesized (X=amino-dT; B=biotin):
# The CAP10 oligonucleotide was hybridized with the CAP11 oligonucleotide to generate the first nucleic acid component. The CAP 12 oligonucleotide was hybridized with the CAP13 oligonucleotide to generate the second nucleic acid component. For hybridization, appropriate oligonucleotides were (1) mixed at 10 μM concentration in 100 μl of buffer (500 mM Na2HPO4, pH 8.6, 1 mM EDTA, in the case of CAP10/CAP11 oligonucleotides; and 20 mM Tris, pH 8.0, 100 mM NaCl, 10 μM EDTA, in the case of CAP12/CAP13 oligonucleotides), (2) heated for 1 min at 95° C., and then (3) cooled to 25° C for 1 hr. The first nucleic acid component (CAP10/CAP11 half-site duplex) was covalently attached to the wells of a N-oxysuccinimide-activated 96 well plate (DNA-BIND, Corning, Acton, Mass.) by incubating 200 μl of first nucleic acid component (at 100 nM) per well in 500 mM Na2HPO4 (pH 8.6), 1 mM EDTA buffer for 1 hr followed by washing with 50 mM Tris (pH 8.0), 100 mM NaCl, 1 mM EDTA containing 0.1 mg/ml BSA. […] After incubation for 1 hr at room temperature, the wells were washed twice with the buffer followed with the addition of streptavidin-linked horseradish peroxidase (Pierce, Rockford, Ill.) at the dilution recommended by the manufacturer. After 30 min of incubation, the wells were washed twice with buffer followed with the addition of 100 μl of Turbo-TMB™ peroxidase substrate solution (Pierce, Rockford, Ill.). […] The absorbance at 450 nm of the sample and control wells were read using a standard microplate reader.
molecule,measurement,setting,value
"CAP: bacterial transcription activator from E. coli which binds DNA in a sequence specific, cAMP-dependent manner (protein, UniProt P0ACJ8 2-210, looked up) DNA-binding transcriptional …: VLGKPQTDPTLEWFLSHCHIHKYPSKSTLIHQGEKAETLYYIVKGSVAVLIKDEEGKEMILSYLNQGDFIGELGLFEEGQERSAWVRAKTACEVAEISYKKFRQLIQVNPDILMRLSAQMARRLQVTSEKVGNLAFLDVTGRIAQTLLNLAKQPDAMTHPDGMQIKITRQEIGQIVGCSRETVGRILKMLEDQNLISAHGKTIVVYGTR",protein concentration at saturation of the quenching signal,[1]; 50 nM duplexes,~150 nM
same,quenching of fluorescence,"[1]; 75 nM CAP, 15 minutes, 50 nM of each duplex, 200 μM cAMP",approximately 50%
same,time for the reaction to go to completion,"[1]; 100 nM CAP, emission 520 nm",approximately 15 minutes
same,change in fluorescence upon addition of CAP,[1]; in the absence of cAMP,No change in fluorescence; also recorded: does not produce a change in fluorescence signal intensity
same,CAP binding to the CAP1/CAP4 and CAP2/CAP3 DNA duplex,CAP protein,No detectable binding
same,quenching of the 7-diethylaminocoumarin-3-carboxylic acid signal,[2],about 60%
same,increase in absorbance signal compared to controls without CAP or cAMP,[3]; 10 nM CAP12/CAP13,approximately 3 fold
same,"Absorbance (450 nm), + CAP","[3]; 10 nM CAP12/CAP13, 250 nM CAP",0.7308
same,"Absorbance (450 nm), + CAP","[3]; 20 nM CAP12/CAP13, 250 nM CAP",0.8584
